The assay concerns the target FAM-LIG1(118–130)K126me2 peptide (human). The experiment in a line: fluorescence polarisation; FAM-labelled peptide with GST-tagged domains or MBP-tagged full-length UHRF1; as described in ref. 4, plotted as change in anisotropy. A general note: Polarisation of emitted light reports the rotation of a fluorescent probe.

Regarding “GST-tagged chromodomain Y-like protein isoform 2 (CDYL1b) chromodomain (domain or fragment)”, the ratio of its dissociation constant to that of the UHRF1 TTD was 70 fold.
